Measurements from patent US20170189519A1.

How the values were obtained:
[1] = biological target: H1-mini2-cluster1+5+6-GCN4 without leader sequence and with FLAG-thrombin-foldon-HIS; test: ELISA, coated CR6261, HEK293F culture medium; average of the parental
[2] = biological target: H1-mini2-cluster1+5+6-GCN4 without leader sequence and with FLAG-thrombin-foldon-HIS; test: ELISA, coated CR6261, P. pastoris culture medium; average of the parental
[3] = biological target: H1-mini2-cluster1+5+6-GCN4 without leader sequence and with FLAG-thrombin-foldon-HIS; test: ELISA, coated CR6261, HEK293F culture medium; the reference itself
[4] = biological target: H1-mini2-cluster1+5+6-GCN4 without leader sequence and with FLAG-thrombin-foldon-HIS; test: ELISA, coated CR6261, P. pastoris culture medium; the reference itself

## CR6261 (antibody)
[1]
  CR6261 binding signal: 5.66e+06
  ratio of CR6261 binding signal to HTRF signal: 17.4
[2]
  CR6261 binding signal: 238000
  ratio of CR6261 binding signal to HTRF signal: 5.94
[3]
  fold increase of ratio over parental SEQ ID NO: 6: 1 fold
[4]
  fold increase of ratio over parental SEQ ID NO: 6: 1 fold
